One block for each molecule: values may come before it. Where a SMILES comes first, the peptide text is derived from it. Bridges are numbered along the chain shown (N, C = ends).
Assays:
hNPR-A = target: T1, hNPR-A (Homo sapiens, UniProt P16066); assay: Competition binding to hNPR-A (Table I, FIG. 5)
T1 sequence (P16066 33-1061): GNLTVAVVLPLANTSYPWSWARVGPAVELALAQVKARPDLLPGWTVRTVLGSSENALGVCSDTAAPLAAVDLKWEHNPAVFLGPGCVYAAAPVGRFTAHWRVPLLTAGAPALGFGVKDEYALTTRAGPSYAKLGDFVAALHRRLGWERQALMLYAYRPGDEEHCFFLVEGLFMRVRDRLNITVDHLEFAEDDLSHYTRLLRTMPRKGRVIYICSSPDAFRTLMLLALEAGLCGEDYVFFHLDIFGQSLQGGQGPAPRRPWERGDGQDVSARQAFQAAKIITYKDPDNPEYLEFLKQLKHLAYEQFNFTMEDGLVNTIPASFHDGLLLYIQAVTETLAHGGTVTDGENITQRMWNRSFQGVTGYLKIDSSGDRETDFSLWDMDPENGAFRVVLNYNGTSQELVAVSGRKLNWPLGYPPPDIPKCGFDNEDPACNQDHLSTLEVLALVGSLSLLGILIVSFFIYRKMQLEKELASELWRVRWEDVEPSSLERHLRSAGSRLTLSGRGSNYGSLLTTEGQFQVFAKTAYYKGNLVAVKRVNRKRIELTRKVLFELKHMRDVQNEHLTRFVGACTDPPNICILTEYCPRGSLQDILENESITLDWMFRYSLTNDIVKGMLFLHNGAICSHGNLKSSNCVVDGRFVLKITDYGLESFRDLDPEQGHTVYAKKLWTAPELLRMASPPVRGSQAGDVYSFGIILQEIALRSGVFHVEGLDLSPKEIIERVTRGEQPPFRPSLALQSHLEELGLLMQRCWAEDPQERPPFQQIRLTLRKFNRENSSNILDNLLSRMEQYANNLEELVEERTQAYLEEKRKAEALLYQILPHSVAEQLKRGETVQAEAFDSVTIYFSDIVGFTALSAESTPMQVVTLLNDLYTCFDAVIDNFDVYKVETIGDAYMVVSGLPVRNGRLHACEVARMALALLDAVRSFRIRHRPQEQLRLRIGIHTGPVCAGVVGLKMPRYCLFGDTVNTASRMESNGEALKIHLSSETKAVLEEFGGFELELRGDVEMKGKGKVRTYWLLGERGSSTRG

hNPR-C = target: T2, hNPR-C (Homo sapiens, UniProt P17342); assay: Competition binding to hNPR-C (Table I, FIG. 5)
T2 sequence (P17342 27-541): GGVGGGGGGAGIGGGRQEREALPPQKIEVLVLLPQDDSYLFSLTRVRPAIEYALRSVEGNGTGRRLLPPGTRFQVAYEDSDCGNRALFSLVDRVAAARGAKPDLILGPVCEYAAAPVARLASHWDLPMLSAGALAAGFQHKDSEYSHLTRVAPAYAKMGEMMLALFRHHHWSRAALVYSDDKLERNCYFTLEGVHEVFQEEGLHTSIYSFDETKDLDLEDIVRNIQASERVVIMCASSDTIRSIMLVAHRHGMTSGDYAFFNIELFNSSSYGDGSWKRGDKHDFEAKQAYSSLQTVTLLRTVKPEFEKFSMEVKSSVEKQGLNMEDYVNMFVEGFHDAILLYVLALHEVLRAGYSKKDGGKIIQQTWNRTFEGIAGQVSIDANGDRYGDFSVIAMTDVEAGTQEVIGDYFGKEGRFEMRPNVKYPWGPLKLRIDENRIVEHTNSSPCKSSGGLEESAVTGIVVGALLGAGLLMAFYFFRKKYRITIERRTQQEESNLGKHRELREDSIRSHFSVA

[1] = target: human NEP (hNEP), endopeptidase 24.11 (Homo sapiens, UniProt P08473); assay: Degradation of ANF variants by human NEP, half-life by HPLC; conditions: isolated human NEP (endopeptidase 24.11) in HEPES buffer, Half-Life (min.), FIG. 7: ANF variants 32 nM/ml, NEP 0.45 μg/ml
Sequence of human NEP (hNEP), endopeptidase 24.11 (P08473 whole entry): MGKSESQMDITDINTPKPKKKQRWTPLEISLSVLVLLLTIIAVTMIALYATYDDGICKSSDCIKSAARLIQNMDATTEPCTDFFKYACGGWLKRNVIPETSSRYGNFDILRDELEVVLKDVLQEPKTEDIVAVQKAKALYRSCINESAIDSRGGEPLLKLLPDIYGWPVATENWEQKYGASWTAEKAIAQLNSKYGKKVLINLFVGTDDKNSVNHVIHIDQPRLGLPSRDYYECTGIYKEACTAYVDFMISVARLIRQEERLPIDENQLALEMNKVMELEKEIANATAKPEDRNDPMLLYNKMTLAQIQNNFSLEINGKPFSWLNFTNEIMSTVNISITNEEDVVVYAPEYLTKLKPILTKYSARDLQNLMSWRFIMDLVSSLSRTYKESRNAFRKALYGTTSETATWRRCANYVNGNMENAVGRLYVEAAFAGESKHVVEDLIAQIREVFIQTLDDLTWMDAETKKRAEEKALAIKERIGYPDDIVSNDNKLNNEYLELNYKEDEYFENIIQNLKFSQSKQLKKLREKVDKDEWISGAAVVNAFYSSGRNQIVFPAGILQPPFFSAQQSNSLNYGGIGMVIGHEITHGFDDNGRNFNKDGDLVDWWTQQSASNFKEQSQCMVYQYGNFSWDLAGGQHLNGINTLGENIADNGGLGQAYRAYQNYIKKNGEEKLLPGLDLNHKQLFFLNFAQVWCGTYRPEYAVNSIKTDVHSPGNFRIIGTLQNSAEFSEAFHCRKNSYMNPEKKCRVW
Protocol: The half-life of various ANF variants was measured according to the following procedure.
ANF Solution: An accurately weighed amount of ANF or variant thereof was diluted with HEPES buffer (5 ml of 1 M HEPES Buffer and 0.1 ml of Tween 20 diluted to a 100 ml volume with DI water) to make a 0.5 mg/ml solution.
hNEP/HEPES Solution: 7.5 μl of a 1 mg/ml solution of hNEP (see U.S. Pat. No. 4,960,700) is dissolved in 992.5 μl of HEPES buffer (as described above) and vortex mixed. The resulting mixture is stored in a silylated Eppendorf tube and periodically checked for activity against an ANF peptide standard.
Assay conditions: 150 μl of an ANF solution in the HEPES buffer is diluted with 820 μl HEPES buffer and vortex mixed (1 sec). Careful note of the time is taken as 30 μl of the hNEP/HEPES solution is added and the solution is vortex mixed for 1 sec. and analyzed by periodic removal of constant volume aliquots by the HPLC autosampler. A 2.5 cm×50 cm, C-18 reversed-phase column (15 micron, 300 Å]) was used and elution was achieved by using a shallow gradient of increasing acetonitrile. The elution conditions consisted of a 10% to 50% acetonitrile (containing 0.1% TFA) gradient at 0.5% min.^−1. The aqueous phase was 0.1% TFA in water. The peak area of the ANP peptide is recorded at these periodic intervals and a half-life is determined from these values.

[2] = target: human neutral endopeptidase 24.11 (human) (UniProt P08473); assay: cell-based or functional assay
[3] = target: T3, human neutral endopeptidase 24.11 (human), P08473; assay: cell-based or functional assay
T3 chain: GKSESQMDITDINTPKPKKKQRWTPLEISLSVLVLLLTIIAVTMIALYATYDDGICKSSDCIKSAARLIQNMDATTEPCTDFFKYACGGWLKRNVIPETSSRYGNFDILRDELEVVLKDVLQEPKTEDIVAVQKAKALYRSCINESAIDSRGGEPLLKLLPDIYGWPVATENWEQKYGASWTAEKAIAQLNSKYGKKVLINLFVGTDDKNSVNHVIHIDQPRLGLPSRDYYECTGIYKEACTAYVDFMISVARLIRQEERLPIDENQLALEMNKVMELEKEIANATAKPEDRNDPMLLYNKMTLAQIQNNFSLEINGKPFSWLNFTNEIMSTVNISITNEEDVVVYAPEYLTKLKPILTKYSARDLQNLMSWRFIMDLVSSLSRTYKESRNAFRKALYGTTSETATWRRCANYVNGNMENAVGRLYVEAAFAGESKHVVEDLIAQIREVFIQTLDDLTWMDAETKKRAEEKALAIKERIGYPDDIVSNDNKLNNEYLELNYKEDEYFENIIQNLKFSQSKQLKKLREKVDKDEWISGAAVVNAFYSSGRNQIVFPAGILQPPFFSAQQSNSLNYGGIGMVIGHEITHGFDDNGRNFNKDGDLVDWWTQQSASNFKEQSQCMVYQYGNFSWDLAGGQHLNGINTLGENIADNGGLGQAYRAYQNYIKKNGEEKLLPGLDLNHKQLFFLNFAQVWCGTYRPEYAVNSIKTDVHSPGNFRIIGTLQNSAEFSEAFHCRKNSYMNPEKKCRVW

Molecule: CC[C@H](C)[C@@H]1NC(=O)[C@H](CCCNC(=N)N)NC(=O)[C@H](CC(=O)O)NC(=O)[C@H](CCSC)NC(=O)[C@H](CO)NC(=O)[C@H](CCCCN)NC(=O)CNC(=O)[C@H](Cc2ccccc2)NC(=O)[C@@H](NC(=O)[C@H](CO)NC(=O)[C@H](CO)NC(=O)[C@H](CCCNC(=N)N)NC(=O)[C@H](CCCNC(=N)N)NC(=O)[C@H](CC(C)C)NC(=O)[C@@H](N)CO)CSSC[C@@H](C(=O)N[C@@H](CC(N)=O)C(=O)N[C@@H](CO)C(=O)N[C@@H](Cc2ccccc2)C(=O)N[C@@H](CCCNC(=N)N)C(=O)N[C@@H](Cc2ccc(O)cc2)C(=O)O)NC(=O)CNC(=O)[C@H](CC(C)C)NC(=O)CNC(=O)[C@H](CO)NC(=O)[C@H](CCC(N)=O)NC(=O)[C@H](C)NC(=O)CNC1=O [ANF 60] (H-SLRRSSCFGKSMDRIGAQSGLGCNSFRY-OH; disulfide 7-23; C-terminus assumed)
- IC50 (hNPR-A; read-out: Binding Affinity IC50(pM) hNPR-A): 112 pM
- IC50 (hNPR-C; read-out: Binding Affinity IC50(pM) hNPR-C): 5980 pM
- half-life at 32 nM/ml [1]: 304 min

Molecule: ANF 40 (peptide)
- Half-Life [2]: 597 min

Molecule: ANF 28 (peptide)
- Half-Life [2]: 571 min

The next lines start with the values.

- Effect of substitution on NPR-A binding (hNPR-A; relative to wild type): negligible effect
- Reduction of NPR-C affinity (hNPR-C; relative to wild type): about 150 fold
Molecule: hANF(1-28) G16R (SLRRSSCFGGRMDRIRAQSGLGCNSFRY) [hANF with the single substitution of arginine for glycine at position 16]

- Half-Life [3]: 136 min
Molecule: SLRRSSCFGGRMDRIGAQSGLGCNSFRY (modifications not checked) [hANF(1-28), wild-type human atrial natriuretic factor]

— US6525022B1, “Receptor specific atrial natriuretic peptides” (Genentech, Inc., priority 1993, dated 2003)
